B1: CPEB3 Ribozyme (parent)
chain: GGGGGCCACAGCAGAAGCGUUCACGUCGCGGCCCCUGUCAGAUUCUGGUGAAUCUGCGAAUUCUGCUGU

Variants of B1 are the subject of this data set. Kind of data set: self-cleavage, relative activity (ratio to wild type); higher = more cleavage; co-transcriptional.
Turning to GGGGGCCACAGCAGAAGCGAUCACGUCGCGGCCCCUGUCAGAUUCUGGUGAAUCUGCGAAUUCUGCCGU [U20A U67C], the self-cleavage came to 0.127.
For the variant GGGGGCCACAGCAGAAGCGAUCACGUCGCGGCCCCUGUCAGAUUCUGGUGAAUCUGCGAAUUCUGCGGU [U20A U67G], the self-cleavage was found to be 0.271.
Next, GGGGGCCACAGCAGAAGCGAUCACGUCGCGGCCCCUGUCAGAUUCUGGUGAAUCUGCGAAUUCUGCUUU [U20A G68U]: 0.142; GGGGGCCACAGCAGAAGCGAUCACGUCGCGGCCCCUGUCAGAUUCUGGUGAAUCUGCGAAUUCUGCUCU [U20A G68C]: 0.253.
For GGGGGCCACAGCAGAAGCGAUCACGUCGCGGCCCCUGUCAGAUUCUGGUGAAUCUGCGAAUUCUGCUAU [U20A G68A], the self-cleavage stood at 0.196.
As for GGGGGCCACAGCAGAAGCGAUCACGUCGCGGCCCCUGUCAGAUUCUGGUGAAUCUGCGAAAUCUGCUGU [U20A U61A], the self-cleavage stood at 0.123.
Consider GGGGGCCACAGCAGAAGCGAUCACGUCGCGGCCCCUGUCAGAUUCUGGUGAAUCUGCGAACUCUGCUGU [U20A U61C], for which the self-cleavage was found to be 0.137.
GGGGGCCACAGCAGAAGCGAUCACGUCGCGGCCCCUGUCAGAUUCUGGUGAAUCUGCGAAGUCUGCUGU [U20A U61G]: the self-cleavage came to 0.137.
In the case of GGGGGCCACAGCAGAAGCGACCACGUCGCGGCCCCUGUCAGAUUCUGGUGAAUCUGCGAAUUCUGCUGU [U20A U21C], the self-cleavage stood at 0.0963.
As for GGGGGCCACAGCAGAAGCGAUCACGUCGCGGCCCCUGUCAGAUUCUGGUGAAUCAGCGAAUUCUGCUGU [U20A U55A], the self-cleavage amounted to 0.237.
Turning to GGGGGCCACAGCAGAAGCGAUCACGUCGCGGCCCCUGUCAGAUUCUGGUGAAUCCGCGAAUUCUGCUGU [U20A U55C], the self-cleavage was 0.118.
Turning to GGGGGCCACAGCAGAAGCGAUCACGUCGCGGCCCCUGUCAGAUUCUGGUGAAUCGGCGAAUUCUGCUGU [U20A U55G], the self-cleavage stood at 0.112.
Take GGGGGCCACAGCAGAAGCGAUCACGUCGCGGCCCCUGUCAGAUUCUGGUGAAUCUGCAAAUUCUGCUGU [U20A G58A]: the self-cleavage was 0.208.
Turning to GGGGGCCACAGCAGAAGCGAUCACGUCGCGGCCCCUGUCAGAUUCUGGUGAAUCUGCUAAUUCUGCUGU [U20A G58U], the self-cleavage stood at 0.152.
As to GGGGGCCACAGCAGAAGCGAUCACGUCGCGGCCCCUGUCAGAUUCGGGUGAAUCUGCGAAUUCUGCUGU [U20A U46G], the self-cleavage stood at 0.128.
Take GGGGGCCACAGCAGAAGCGAUCACGUCGCGGCCCCUGUCAGAUUCCGGUGAAUCUGCGAAUUCUGCUGU [U20A U46C]: the self-cleavage is 0.0817.
Next, GGGGGCCACAGCAGAAGCGAUCACGUCGCGGCCCCUGUCAGAUUCAGGUGAAUCUGCGAAUUCUGCUGU [U20A U46A]: 0.216; GGGGGCCACAGCAGAAGCGAUCACGUCGCGGCCCCUGUCAGAUUCUGGUGAAACUGCGAAUUCUGCUGU [U20A U53A]: 0.0892; GGGGGCCACAGCAGAAGCGAUCACGUCGCGGCCCCUGUCAGAUUCUGGUGAACCUGCGAAUUCUGCUGU [U20A U53C]: 0.154.
As for GGGGGCCACAGCAGAAGCGAUCACGUCGCGGCCCCUGUCAGAUUCUGGUGAAGCUGCGAAUUCUGCUGU [U20A U53G], the self-cleavage stood at 0.136.
For GGGGGCCACAGCAGAAGCGAUCACGUCGCGGCCCCUGUCAGAUUCUGGUGAAUCUGCGAAUUCUUCUGU [U20A G65U], the self-cleavage came out at 0.19.
Turning to GGGGGCCACAGCAGAAGCGAUCACGUCGCGGCCCCUGUCAGAUUCUGGUGAAUCUGCGAAUUCUCCUGU [U20A G65C], the self-cleavage was found to be 0.113.
Turning to GGGGGCCACAGCAGAAGCGAUCACGUCGCGGCCCCUGUCAGAUUCUGGUGAAUCUGCGAAUACUGCUGU [U20A U62A], the self-cleavage turned out to be 0.0929.
On to GGGGGCCACAGCAGAAGCGAUCACGUCGCGGCCCCUGUCAGAUGCUGGUGAAUCUGCGAAUUCUGCUGU [U20A U44G], for which the self-cleavage turned out to be 0.204.
Take GGGGGCCACAGCAGAAGCGAUCACGUCGCGGCCCCUGUCAGAUACUGGUGAAUCUGCGAAUUCUGCUGU [U20A U44A]: the self-cleavage turned out to be 0.15.
For the variant GGGGGCCACAGCAGAAGCGAUCACGUCGCGGCCCCUGUCAGAUCCUGGUGAAUCUGCGAAUUCUGCUGU [U20A U44C], the self-cleavage worked out at 0.139.
To GGGGGCCACAGCAGAAGCGAUCACGUCGCGGCCCCUGUCAGACUCUGGUGAAUCUGCGAAUUCUGCUGU [U20A U43C] belongs 0.154; to GGGGGCCACAGCAGAAGCGAUCACGUCGCGGCCCCUGUCAGAGUCUGGUGAAUCUGCGAAUUCUGCUGU [U20A U43G], 0.123.
Turning to GGGGGCCACAGCAGAAGCGAUCACGUCGCGGCCCCUGUCAGAUUCUGGUGAAUCUGCGAAUUCAGCUGU [U20A U64A], the self-cleavage was found to be 0.326.
For GGGGGCCACAGCAGAAGCGAUCACGUCGCGGCCCCUGUCAGAUUCUGGUGAAUCUGCGAAUUCGGCUGU [U20A U64G], the self-cleavage was 0.11.
As for GGGGGCCACAGCAGAAGCGAUCACGUCGCGGCCCCUGUCAGAUUCUGGUGAAUCUGCGAAUUCCGCUGU [U20A U64C], the self-cleavage was 0.122.
Consider GGGGGCCACAGCAGAAGCGAUCACGUCGCGGCCCCUGUCAGAUUCUGGUGAAUCUCCGAAUUCUGCUGU [U20A G56C], for which the self-cleavage came to 0.113.
Turning to GGGGGCCACAGCAGAAGCGAUCACGUCGCGGCCCCUGUCAGAUUCUGGUGAAUCUUCGAAUUCUGCUGU [U20A G56U], the self-cleavage came out at 0.217.
In the case of GGGGGCCACAGCAGAAGCGAUCACGCCGCGGCCCCUGUCAGAUUCUGGUGAAUCUGCGAAUUCUGCUGU [U20A U26C], the self-cleavage came to 0.106.
With GGGGGCCACAGCAGAAGCGAUCACGGCGCGGCCCCUGUCAGAUUCUGGUGAAUCUGCGAAUUCUGCUGU [U20A U26G], the self-cleavage worked out at 0.182.
For the variant GGGGGCCACAGCAGAAGCGAUCACGUCGCGGCCCCUGUCAGAUUCUGGAGAAUCUGCGAAUUCUGCUGU [U20A U49A], the self-cleavage was found to be 0.125.
As for GGGGGCCACAGCAGAAGCGAUCACGUCGCGGCCCCGGUCAGAUUCUGGUGAAUCUGCGAAUUCUGCUGU [U20A U36G], the self-cleavage came to 0.201.
With GGGGGCCACAGCAGAAGCGAUCACGUCGCGGCCCCCGUCAGAUUCUGGUGAAUCUGCGAAUUCUGCUGU [U20A U36C], the self-cleavage is 0.149.
As for GGGGGCCACAGCAGAAGCGAUCACGUCGCGGCCCCUGGCAGAUUCUGGUGAAUCUGCGAAUUCUGCUGU [U20A U38G], the self-cleavage amounted to 0.23.

The values above are taken from the RNAGym collection of RNA variant scans (doi:10.7554/elife.80360).
